The target of one assay is MCP3 (CCL7) (UniProt P80098 24-99). The assay is described as follows: SPR (Biacore T200), HCM101 immobilized on CM-1 chip, chemokine in solution; MCP3 (CCL7). The method, then: (§1) The affinity constant of HCM101 was evaluated using Biacore T200. This method uses Surface Plasmon Resonance (SPR) electro-optical phenomenon to measure the binding constants and on/off rates between binding partners. HCM101 was immobilized on a surface of a CM-1 chip, and a solution of eotaxin 1 (CCL11)/MCP3 (CCL7) was passed over the surface. The changes in SPR angle were measured and enabled to determine the KD (equilibrium dissociation constant).
Sequence of MCP3 (CCL7) (P80098 24-99 limits assumed): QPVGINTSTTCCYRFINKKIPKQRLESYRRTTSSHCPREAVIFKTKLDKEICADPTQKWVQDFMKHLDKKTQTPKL
(§2) Biacore, an SPR based technology was used in order to examine the binding affinity of HCM101, generated by CHO cells, to other, non-CCL24 chemokines.
For orientation: In SPR one partner is held on a chip, and binding of the other changes the refractive index at the surface.

A further assay concerns the target T1, Eotaxin 1 (CCL11) (human, UniProt P51671 24-97).
T1 construct: also called human CCL11
As to the kind of experiment: SPR (Biacore T200), HCM101 immobilized on CM-1 chip, chemokine in solution; Eotaxin 1 (CCL11). As for the experimental part:
as §1, §2

From patent US20200040070A1 (CHEMOMAB, published 2020) come the findings set out here.

T1 sequence (P51671 24-97 limits assumed): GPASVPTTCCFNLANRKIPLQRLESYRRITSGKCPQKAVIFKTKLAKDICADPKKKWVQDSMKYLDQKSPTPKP

B1: fully humanized anti CCL24 antibody HCM101 (antibody, V domains shown)
VH: QIQLVQSGPELKKPGASVKVSCRASGYPFTNSGMNWVKQAPGKGLKWMGWINTYNGEPTYTDDFKGRFAFSLETSASTAYLQINNLRNEDTATYFCASHSYGSSYAMDNWGQGTSVTVSS
VL: DIVLTQSPDSLAVSLGERATINCKASQSVDYDGDSYMNWYQQKPGQPPKLLIYVASNLKSGIPARFSGSGSGTDFTLTISSLQPEDFATYYCQQSNEEPWTFGGGTKVEIK
notes: also called humanized version of CM101
A word on the Kd: it is the free concentration of one partner at which half of the binding sites on the other are occupied at equilibrium, for simple one-to-one binding. A lower Kd goes with tighter binding. With B1, the figures for the Kd in the assay with MCP3 (CCL7) and with Eotaxin 1 (CCL11) were 130 nM and 30 nM, respectively.
